Experimental data: patent US20250051409A1, “MODULATORS OF PHOSPHATIDYLSERlNE DECARBOXYLASE AND USE THEREOF” (THE NATIONAL INSTITUTE FOR BIOTECHNOLOGY IN THE NEGEV LTD., priority 2021, published 2025)

Target: Human recombinant SMAC (10339-H08E), Sino Biologicals (human) (UniProt Q9NR28)
Assay: microscale thermophoresis; fluorescently labelled SMAC (1 µM) with purified PSD (78-625 nM)

Sequence of Human recombinant SMAC (10339-H08E), Sino Biologicals (human) (Q9NR28 56-239 limits assumed, stated change not applied): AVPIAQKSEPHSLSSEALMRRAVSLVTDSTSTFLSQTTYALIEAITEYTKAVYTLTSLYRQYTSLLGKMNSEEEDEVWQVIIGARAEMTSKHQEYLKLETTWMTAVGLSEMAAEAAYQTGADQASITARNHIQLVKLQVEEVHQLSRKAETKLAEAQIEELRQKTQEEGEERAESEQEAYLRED

Kd: 246 nM
Substance: Purified recombinant protein (full length) of human phosphatidylserine decarboxylase (PSD), with N-terminal His tag, expressed in E. coli (Acris-OriGene) (from UniProt Q58DH2 60-416) (enzyme)
